Results from article PMC6985046.

Experiments:
[1] = target: PF-06438179/GP1111 Fab fragment (mouse/human chimeric); assay: AUC
[2] = target: Remicade Fab fragment (sourced from the European Union market) (mouse/human chimeric); assay: AUC

stoichiometry N [1]	Kd [2] [µM]	Substance
2		PF-06438179/GP1111 Fab fragment
	23	Remicade Fab fragment (sourced from the European Union market)
